For assay [1], the target named is T1, Complex I with gH W168C, on virions of HB1 - mutant viruses 2 and 5 (HCMV, UniProt P12824 24-743; P16832 31-278; P16837 28-171; F5HCP3 26-214; F5HET4 19-129).
T1 chain 1: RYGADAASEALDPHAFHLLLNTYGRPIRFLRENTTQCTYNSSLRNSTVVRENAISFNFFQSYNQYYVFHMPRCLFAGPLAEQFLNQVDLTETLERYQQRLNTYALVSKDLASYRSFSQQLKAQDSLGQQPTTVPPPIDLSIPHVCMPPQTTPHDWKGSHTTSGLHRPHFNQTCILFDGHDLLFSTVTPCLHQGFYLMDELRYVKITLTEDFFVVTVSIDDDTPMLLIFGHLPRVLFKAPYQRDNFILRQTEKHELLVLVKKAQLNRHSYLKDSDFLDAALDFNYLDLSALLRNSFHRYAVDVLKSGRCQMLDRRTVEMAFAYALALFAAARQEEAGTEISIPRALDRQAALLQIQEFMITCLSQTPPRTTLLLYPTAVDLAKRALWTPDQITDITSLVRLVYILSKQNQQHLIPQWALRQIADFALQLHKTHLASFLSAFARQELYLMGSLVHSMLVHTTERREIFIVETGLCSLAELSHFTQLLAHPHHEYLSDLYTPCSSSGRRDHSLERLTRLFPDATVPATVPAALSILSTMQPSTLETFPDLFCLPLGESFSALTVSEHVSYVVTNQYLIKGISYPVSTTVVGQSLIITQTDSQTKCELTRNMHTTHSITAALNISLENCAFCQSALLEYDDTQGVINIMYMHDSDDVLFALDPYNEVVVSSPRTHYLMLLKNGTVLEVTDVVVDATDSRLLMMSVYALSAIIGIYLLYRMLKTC
T1 chain 2: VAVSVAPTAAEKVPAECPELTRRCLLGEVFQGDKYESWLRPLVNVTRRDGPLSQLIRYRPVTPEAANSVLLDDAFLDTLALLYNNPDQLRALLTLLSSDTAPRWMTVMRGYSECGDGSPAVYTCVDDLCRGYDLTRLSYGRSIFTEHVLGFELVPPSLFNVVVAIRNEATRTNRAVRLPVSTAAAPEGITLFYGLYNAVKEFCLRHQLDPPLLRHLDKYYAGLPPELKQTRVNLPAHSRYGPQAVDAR
T1 chain 3: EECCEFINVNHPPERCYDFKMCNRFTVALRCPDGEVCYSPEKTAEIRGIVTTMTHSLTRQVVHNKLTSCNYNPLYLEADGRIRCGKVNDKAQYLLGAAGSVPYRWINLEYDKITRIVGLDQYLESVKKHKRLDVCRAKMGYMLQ
T1 chain 4: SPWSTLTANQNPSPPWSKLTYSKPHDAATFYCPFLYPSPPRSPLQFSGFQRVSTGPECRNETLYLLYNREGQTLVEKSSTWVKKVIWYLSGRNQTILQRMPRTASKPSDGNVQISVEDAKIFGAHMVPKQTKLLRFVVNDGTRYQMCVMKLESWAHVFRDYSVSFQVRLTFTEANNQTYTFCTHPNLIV
T1 chain 5: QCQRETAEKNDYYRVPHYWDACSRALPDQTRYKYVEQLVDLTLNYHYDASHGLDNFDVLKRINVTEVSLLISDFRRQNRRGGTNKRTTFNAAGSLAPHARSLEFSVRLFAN
Nature of the assay: cell-based or functional assay.

Assay [2] has as its target T2, Complex I with gH W168R, on virions of HB1 - mutant virus 6 (HCMV, UniProt P12824 24-743; P16832 31-278; P16837 28-171; F5HCP3 26-214; F5HET4 19-129).
T2 chain 1: T1 chain 1 with C145R
T2 chain 2: T1 chain 2
T2 chain 3: T1 chain 3
T2 chain 4: T1 chain 4
T2 chain 5: T1 chain 5
Nature of the assay: cell-based or functional assay.

Positions count from the first letter of the chain named.

B1: hu8G8 (lambda4 8G8 graft and hu8G8.VH1) (antibody, V domains shown)
VH: EVQLVQSGAEVKKPGASVKVSCKASGYTFTNYGMNWVRQAPGQGLEWIGWINTYTGEPTYADDFKGRVTITRDTSTSTAYLELSSLRSEDTAVYYCARSWYYVSNYWYFDVWGQGTLVTVSS
VL: SVLTQSPSASASLGASVKLTCTLSSQHSTYTIEWYQQQPGKGPRYLMKLKKDGSHSTGDGIPDRFSGSSSGADRYLTISNLQSEDEADYYCGVGDTIKEQFVYVFGGGTKLTVLG
notes: also called hu8G8 with VH1; Humanized 8G8 with VH1
On to B1, for which, in assay [1], the “hu8G8 EC50, neutralisation of HB1 - mutant virus 2, Data Set 1” value was 8 ng/mL; the “hu8G8 EC50, neutralisation of HB1 - mutant virus 2, Data Set 2” value was 6 ng/mL; the “hu8G8 EC50, neutralisation of HB1 - mutant virus 5, Data Set 2” value is 1 ng/mL. Moreover, in assay [2], the “hu8G8 EC50, neutralisation of HB1 - mutant virus 6, Data Set 2” value amounted to 1 ng/mL.
